Data on one molecule can be found in article PMC3740164 (Developmental cell, 2013).

The target in this assay is full-length His6-PIPKIγi5 (human, UniProt O60331-3 1-707). In words: pull-down.

B1: GST-SNX5 (natural protein, UniProt Q9Y5X3 1-404, looked up)
chain: MAAVPELLQQQEEDRSKLRSVSVDLNVDPSLQIDIPDALSERDKVKFTVHTKTTLPTFQSPEFSVTRQHEDFVWLHDTLIETTDYAGLIIPPAPTKPDFDGPREKMQKLGEGEGSMTKEEFAKMKQELEAEYLAVFKKTVSSHEVFLQRLSSHPVLSKDRNFHVFLEYDQDLSVRRKNTKEMFGGFFKSVVKSADEVLFTGVKEVDDFFEQEKNFLINYYNRIKDSCVKADKMTRSHKNVADDYIHTAACLHSLALEEPTVIKKYLLKVAELFEKLRKVEGRVSSDEDLKLTELLRYYMLNIEAAKDLLYRRTKALIDYENSNKALDKARLKSKDVKLAEAHQQECCQKFEQLSESAKEELINFKRKRVAAFRKNLIEMSELEIKHARNNVSLLQSCIDLFKNN
In the case of B1, the binding result is listed as “binds”.
